Consider ten molecules from US10597674B2, “HPPD variants and methods of use” (BASF Agricultural Solutions Seed, US LLC, priority 2015, dated 2020).

The test system of series [1] is E. coli cells expressing an HPPD polypeptide. Nature of the series: Brown color bioassay in liquid culture, residual brown color formation (BCF), OD440 after 96 hours. In kind it is cell-based. Conditions: for Control BCF OD440nm: brown color formation in absence of Cmpd. 1, culture supernatant after 96 hours, 5 mM HPP; for Residual BCF OD440nm [%]: brown color formation with Cmpd. 1 (1000 μM) relative to without, after 96 hours. In outline:
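E. coli expressing HPPD variants were grown at 30 degrees Celsius from OD600 0.3-0.5 in LB with 5 mM HPP, with or without herbicide (e.g. Cmpd. 1, 1000 μM). After 96 hours, supernatant OD440 was measured; residual brown colour formation compares pigment with and without inhibitor.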

For series [2], the system named is HPPD polypeptides (wild-type SEQ ID NO:1 and mutants). Conditions: low substrate concentration; for Residual activity: kapp in presence of 50 μM Cmpd. 1, normalised to kapp without inhibitor; for Residual turnover: total change in signal in presence of 50 μM Cmpd. 1, normalised to that without inhibitor.

B1: 72 (protein)
chain: MADLYENPMGLMGFEFIEFASPTPGTLEPIFEIMGFTKVATHRSKNVHLYRQGEINLILNNEPNSIASYFAAEHGPSVCGMAFRVKDSQKAYNRALELGAQPIHIDTGPMELNLPAIKGIGGAPLYLIDRFGEGSSIYDIDFVYLEGVERNPVGAGLKVIDHLTHNVYRGRMVYWANFYEKLFNFREARYFDIKGEYTGLTSKAMSAPDGMIRIPLNEESSKGAGQIEEFLMQFNGEGIQHVAFLTDDLVKTWDALKKIGMRFMTAPRDEYYEMLEGRLPDHGEPVDQLQARGILLDGSSVEGDKRLLLQIFSETLMGPVFFEFIQRKGDDGFGPDSFKVLFESVERDQVRRGVLTAD
modifications: mutant HPPD polypeptide
As to B1, in series [1], the “Control BCF OD440nm” value is reported as 2.77 and the “Residual BCF OD440nm [%]” value is reported as 72%. In addition, in series [2], the Residual activity came to 25% and the Residual turnover is recorded as 55%.

B2: 76 (protein)
chain: MADLYENPMGLMGFEFIEFASPTPGTLEPIFEIMGFTKVATHRSKNVHLYRQGEINLILNNEPNSIASYFAAEHGPSVCGMAFRVKDSQKAYNRALELGAQPIHIDTGPMELNLPAIKGIGGAPLYLIDRFGEGSSIYDIDFVYLEGVERNPVGAGLKVIDHLTHNVYRGRMVYWANFYEKLFNFREARYFDIKGEYTGLTSKAMSAPDGMIRIPLNEESSKGAGQIEEFLMQFNGEGIQHVAFLTDDLVKTWDALKKIGMRFMTAPGDRYYEMLEGRLPDHGEPVDQLQARGILLDGSSVEGDKRLLLQIFSETLMGPVFFEFIQRKGDDGFGPDSFKVLFESVERDQVRRGVLTAD
modifications: mutant HPPD polypeptide
Consider B2, for which, in series [1], the “Control BCF OD440nm” value was found to be 2.73 and the “Residual BCF OD440nm [%]” value worked out at 58%. In series [2], the Residual activity was found to be 19% and the Residual turnover came to 50%.

B3: 56 (protein)
chain: MADLYENPMGLMGFEFIEFASPTPGTLEPIFEIMGFTKVATHRSKNVHLYRQGEINLILNNEPNSIASYFAAEHGPSVCGMAFRVKDSQKAYNRALELGAQPIHIDTGPMELNLPAIKGIGGAPLYLIDRFGEGSSIYDIDFVYLEGVERNPVGAGLKVIDHLTHNVYRGRMVYWANFYEKLFNFREARYFDIKGEYTGLTSKAMSAPDGMIRIPLNEESSKGAGQIEEFLMQFNGEGIQHVAFLTDDLVKTWDALKKIGMRFMTAPGDEYYEMLEGRLPDHGEPVDQLQARGILLDGSSVEGDKRLLLQIFSETLMGPVFFEFIQRKGDDGFGPDSFRVLFESVERDQVRRGVLTAD
modifications: mutant HPPD polypeptide
With B3, in series [1], the “Control BCF OD440nm” value amounted to 1.98 and the “Residual BCF OD440nm [%]” value was determined as 68%. Further, in series [2], the Residual activity is 27% and the Residual turnover stood at 59%.

B4: 81 (protein)
chain: MADLYENPMGLMGFEFIEFASPTPGTLEPIFEIMGFTKVATHRSKNVHLYRQGEINLILNNEPNSIASYFAAEHGPSVCGMAFRVKDSQKAYNRALELGAQPIHIDTGPMELNLPAIKGIGGAPLYLIDRFGEGSSIYDIDFVYLEGVERNPVGAGLKVIDHLTHNVYRGRMVYWANFYEKLFNFREARYFDIKGEYTGLTSKAMSAPDGMIRIPLNEESSKGAGQIEEFLMQFNGEGIQHVAFLTDDLVKTWDALKKIGMRFMTAPGDEYYEMLEGRLPDHGEPVDQLQARGILLDGSSVEGDKRLLLQIFSETLMGPVFFEFIQRKGDDGFGPDSFKALFESVERDQVRRGVLTAD
modifications: mutant HPPD polypeptide
Take B4: in series [1], the “Control BCF OD440nm” value amounted to 2.05 and the “Residual BCF OD440nm [%]” value is on record as 39%. In addition, in series [2], the Residual activity was 17% and the Residual turnover worked out at 51%.

B5: 77 (protein)
chain: MADLYENPMGLMGFEFIEFASPTPGTLEPIFEIMGFTKVATHRSKNVHLYRQGEINLILNNEPNSIASYFAAEHGPSVCGMAFRVKDSQKAYNRALELGAQPIHIDTGPMELNLPAIKGIGGAPLYLIDRFGEGSSIYDIDFVYLEGVERNPVGAGLKVIDHLTHNVYRGRMVYWANFYEKLFNFREARYFDIKGEYTGLTSKAMSAPDGMIRIPLNEESSKGAGQIEEFLMQFNGEGIQHVAFLTDDLVKTWDALKKIGMRFMTAPGDSYYEMLEGRLPDHGEPVDQLQARGILLDGSSVEGDKRLLLQIFSETLMGPVFFEFIQRKGDDGFGPDSFKVLFESVERDQVRRGVLTAD
modifications: mutant HPPD polypeptide
Take B5: in series [1], the “Control BCF OD440nm” value is on record as 2.57 and the “Residual BCF OD440nm [%]” value was 67%. In series [2], the Residual activity is recorded as 19% and the Residual turnover came to 44%.

B6: 46 (protein)
chain: MADLYENPMGLMGFEFIEFASPTPGTLEPIFEIMGFTKVATHRSKNVHLYRQGEINLILNNEPNSIASYFAAEHGPSVCGMAFRVKDSQKAYNRALELGAQPIHIDTGPMELNLPAIKGIGGAPLYLIDRFGEGSSIYDIDFVYLEGVERNPVGAGLKVIDHLTHNVYRGRMVYWANFYEKLFNFREARYFDIKGEYTGLTSKAMSAPDGMIRIPLNEESSKGAGQIEEFLMQFNGEGIQHVAFLTDDLVKTWDALKKIGMRFMTAPGDEYYEMLEGRLPDHGEPVDQLQARGILLDGSSVEGDKRLLLQIFSEMLMGPVFFEFIQRKGDDGFGPDSFKVLFESVERDQVRRGVLTAD
modifications: mutant HPPD polypeptide
On to B6, for which, in series [1], the “Control BCF OD440nm” value was 2.47 and the “Residual BCF OD440nm [%]” value turned out to be 66%. In series [2], the Residual activity is reported as 32% and the Residual turnover is 59%.

B7: 57 (protein)
chain: MADLYENPMGLMGFEFIEFASPTPGTLEPIFEIMGFTKVATHRSKNVHLYRQGEINLILNNEPNSIASYFAAEHGPSVCGMAFRVKDSQKAYNRALELGAQPIHIDTGPMELNLPAIKGIGGAPLYLIDRFGEGSSIYDIDFVYLEGVERNPVGAGLKVIDHLTHNVYRGRMVYWANFYEKLFNFREARYFDIKGEYTGLTSKAMSAPDGMIRIPLNEESSKGAGQIEEFLMQFNGEGIQHVAFLTDDLVKTWDALKKIGMRFMTAPGDEYYEMLEGRLPDHGEPVDQLQARGILLDGSSVEGDKRLLLQIFSETLMGPVFFEFIQRKGDDGFGPDSFTVLFESVERDQVRRGVLTAD
modifications: mutant HPPD polypeptide
On to B7, for which, in series [1], the “Control BCF OD440nm” value came out at 1.39 and the “Residual BCF OD440nm [%]” value amounted to 46%. Besides, in series [2], the Residual activity was 33% and the Residual turnover is 68%.

B8: 52 (protein)
chain: MADLYENPMGLMGFEFIEFASPTPGTLEPIFEIMGFTKVATHRSKNVHLYRQGEINLILNNEPNSIASYFAAEHGPSVCGMAFRVKDSQKAYNRALELGAQPIHIDTGPMELNLPAIKGIGGAPLYLIDRFGEGSSIYDIDFVYLEGVERNPVGAGLKVIDHLTHNVYRGRMVYWANFYEKLFNFREARYFDIKGEYTGLTSKAMSAPDGMIRIPLNEESSKGAGQIEEFLMQFNGEGIQHVAFLTDDLVKTWDALKKIGMRFMTAPGDEYYEMLEGRLPDHGEPVDQLQARGILLDGSSVEGDKRLLLQIFSETLMGPVFFEFIQRKGDSGFGPDSFKVLFESVERDQVRRGVLTAD
modifications: mutant HPPD polypeptide
On to B8, for which, in series [1], the “Control BCF OD440nm” value was 2.08 and the “Residual BCF OD440nm [%]” value turned out to be 65%. In series [2], the Residual activity is 31% and the Residual turnover is recorded as 57%.

B9: 73 (protein)
chain: MADLYENPMGLMGFEFIEFASPTPGTLEPIFEIMGFTKVATHRSKNVHLYRQGEINLILNNEPNSIASYFAAEHGPSVCGMAFRVKDSQKAYNRALELGAQPIHIDTGPMELNLPAIKGIGGAPLYLIDRFGEGSSIYDIDFVYLEGVERNPVGAGLKVIDHLTHNVYRGRMVYWANFYEKLFNFREARYFDIKGEYTGLTSKAMSAPDGMIRIPLNEESSKGAGQIEEFLMQFNGEGIQHVAFLTDDLVKTWDALKKIGMRFMTAPSDEYYEMLEGRLPDHGEPVDQLQARGILLDGSSVEGDKRLLLQIFSETLMGPVFFEFIQRKGDDGFGPDSFKVLFESVERDQVRRGVLTAD
modifications: mutant HPPD polypeptide
For the molecule B9, in series [1], the “Control BCF OD440nm” value is given as 2.75 and the “Residual BCF OD440nm [%]” value is reported as 72%. Further, in series [2], the Residual activity turned out to be 29% and the Residual turnover was found to be 58%.

B10: 83 (protein)
chain: MADLYENPMGLMGFEFIEFASPTPGTLEPIFEIMGFTKVATHRSKNVHLYRQGEINLILNNEPNSIASYFAAEHGPSVCGMAFRVKDSQKAYNRALELGAQPIHIDTGPMELNLPAIKGIGGAPLYLIDRFGEGSSIYDIDFVYLEGVERNPVGAGLKVIDHLTHNVYRGRMVYWANFYEKLFNFREARYFDIKGEYTGLTSKAMSAPDGMIRIPLNEESSKGAGQIEEFLMQFNGEGIQHVAFLTDDLVKTWDALKKIGMRFMTAPGDEYYEMLEGRLPDHGEPVDQLQARGILLDGSSVEGDKRLLLQIFSETLMGPVFFEFIQRKGDDGFGPDSFKGLFESVERDQVRRGVLTAD
modifications: mutant HPPD polypeptide
Turning to B10, in series [1], the “Control BCF OD440nm” value is 1.83 and the “Residual BCF OD440nm [%]” value is on record as 47%. Besides, in series [2], the Residual activity was found to be 53% and the Residual turnover came out at 87%.
